Read-outs that look alike come from different tables or passages of the source.
Experiments:
His10/Avi Human IL33-01 [1] = target: T1, His10/Avi Human IL33-01 (human); test: HTRF epitope competition, IgG titrated; competitor DyLight labelled 33_640117 IgG; 1 hour
T1 construct: Wild type mature IL-33 with N-terminal 10xHis, Avitag and Factor Xa site; biotinylated by BirA on the Avitag where used biotinylated; reduced form unless treated; also called N-terminal His Avi IL-33; His-Avi human IL-33 wild type
T1 chain: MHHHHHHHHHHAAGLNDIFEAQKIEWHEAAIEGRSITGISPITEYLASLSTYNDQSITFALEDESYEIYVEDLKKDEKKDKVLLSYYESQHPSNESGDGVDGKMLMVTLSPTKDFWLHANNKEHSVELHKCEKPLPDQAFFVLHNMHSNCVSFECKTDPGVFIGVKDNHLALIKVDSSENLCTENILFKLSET
Description: (§1) As the epitope competition assay utilising 33_640027 reached its limit of sensitivity, an assay using 33_640117 was used for testing purified scFv samples. The assay was essentially as described for the 33v20064 competition assay with the following modifications: 2.5 nM DyLight labelled 33_640117 was prepared and 2.5 microlitres added to the assay plates. This was followed by the addition of 2.5 microlitres of a solution containing 0.12 nM biotinylated human IL-33-01 combined with 0.75 nM streptavidin cryptate detection (Cisbio International, 610SAKLB) for the human assay or a solution containing 0.24 nM biotinylated cynomolgus IL-33 combined with 1.5 nM streptavidin cryptate detection (Cisbio International, 610SAKLB) for the cynomolgus assay. Fluorescence was read after one hour and overnight incubation.
(§2) The ability of anti-IL-33 antibodies to inhibit the binding of biotinylated His Avi human IL-33 or cynomolgus His Avi IL-33 to the DyLight labelled 33_640117 IgG was assessed in a biochemical HTRF® (Homogeneous Time-Resolved Fluorescence, Cisbio International) competition assays as described above.

His10/Avi Cyno IL-33 = target: T2, His10/Avi Cyno IL-33 (cynomolgus monkey); test: as above
T2 construct: also called Cynomolgus 10His Avitag IL-33; biotinylated His Avi cynomolgus IL-33
T2 chain: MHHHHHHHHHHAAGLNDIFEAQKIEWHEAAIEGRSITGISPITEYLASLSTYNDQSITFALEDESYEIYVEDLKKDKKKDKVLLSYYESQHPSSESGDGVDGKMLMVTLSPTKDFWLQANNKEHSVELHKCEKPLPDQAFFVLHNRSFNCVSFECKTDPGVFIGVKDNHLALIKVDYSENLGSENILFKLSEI
Description: as §1, §2

His10/Avi Human IL33-01 [2] = target: T1, His10/Avi Human IL33-01; test: HTRF epitope competition, IgG titrated; competitor DyLight labelled 33_640117 IgG; overnight
Description: as §1, §2

His10/Avi Human IL33-01 [3] = target: T1, His10/Avi Human IL33-01; test: cell-based or functional assay
[4] = target: T3, Full-length human IL-33 (amino acids 1-270), HEK293-EBNA cell lysate (human, UniProt O95760 1-270); test: cell-based or functional assay
T3 sequence (looked up): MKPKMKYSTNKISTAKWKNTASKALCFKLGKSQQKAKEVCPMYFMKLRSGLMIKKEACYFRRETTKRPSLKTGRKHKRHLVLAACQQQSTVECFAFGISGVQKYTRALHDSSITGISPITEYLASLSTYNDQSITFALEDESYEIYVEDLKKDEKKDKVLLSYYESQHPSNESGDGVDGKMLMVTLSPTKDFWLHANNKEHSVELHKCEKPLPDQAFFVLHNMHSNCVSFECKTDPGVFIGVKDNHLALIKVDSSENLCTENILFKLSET

[5] = target: T4, Recombinant human IL-33 (construct not named in the example) (human, UniProt O95760 112-270, limits assumed); test: SPR Biacore T100, 25 C, biotinylated human IL-33 on streptavidin C1 chip, Fab as analyte
T4 construct: also called Recombinant, enzymatically biotinylated human IL-33 (produced in-house); IL-33 (200 nM)
T4 sequence (looked up): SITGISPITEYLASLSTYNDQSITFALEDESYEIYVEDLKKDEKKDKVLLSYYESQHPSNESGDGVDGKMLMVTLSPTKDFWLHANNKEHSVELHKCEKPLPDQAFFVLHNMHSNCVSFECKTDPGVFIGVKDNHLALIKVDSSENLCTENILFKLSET
Description: Fab fragments were generated by papain cleavage from full length IgG1 and purified by SEC. […] Streptavidin was covalently immobilised to a C1 chip surface using standard amine coupling techniques at a concentration of […] in 10 mM Sodium acetate pH 4.5. […] Recombinant, enzymatically biotinylated human IL-33 (produced in-house) was titrated onto the streptavidin chip surface at […] in HBS-EP+ buffer to enable ˜30 RUs of Fab binding at saturation (Rmax). This low level of analyte binding ensured minimal mass transport effects.
The IL-33 Fab was serially diluted from 5 nM to 78 pM in HBS-EP+ buffer and flowed over the chip at 50 μl/min, with 3 minutes association and up to 30 minutes dissociation. Multiple buffer only injections were made under the same conditions to allow for double reference subtraction of the final sensorgram sets, which were analysed using the BiaEval software (version 2.0.1). The chip surface was fully regenerated with pulses of 3M MgCl₂.

[6] = target: T5, Human IL-33 (Axxora/Adipogen AG-40B-0038) (human, UniProt O95760 112-270, limits assumed); test: cell-based or functional assay
T5 sequence (looked up): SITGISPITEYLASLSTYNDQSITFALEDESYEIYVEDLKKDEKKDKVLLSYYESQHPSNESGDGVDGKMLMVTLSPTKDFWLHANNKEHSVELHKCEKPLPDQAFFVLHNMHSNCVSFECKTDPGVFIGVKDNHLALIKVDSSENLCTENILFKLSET

[7] = target: T5, Human IL-33 (Axxora/Adipogen …); test: cell-based or functional assay; remark: listed apart in the source
[8] = target: T5, Human IL-33 (Axxora/Adipogen …); test: cell-based or functional assay; remark: listed apart in the source

B1: 33_640081 IgG1 (antibody, V domains shown)
VH: EVQLLESGGGSVQPGGSLRLSCAASGFTFSSYAMNWVRQAPGKGLEWVSAISGSGGSTHYADSVKGRFTISRDNSKNTLYLQMNSLRAEDTAVYYCGRAKFMQLWGGGLRYPLGYWGQGTMVTVSS
VL: SYVLTQPPSVSVSPGQTASITCSGERMGDKYAAWYQQKPGQSPVLVIYQDTKRPSGIPERFSGSNSGNTATLTISGTQATDEADYYCQVWAADDTGVFGGGTKVTVL
notes: IgG1; also called ZZ1JMB-H05
His10/Avi Human IL33-01 [1]
  IC50: 0.3 nM
His10/Avi Cyno IL-33
  IC50: 10 nM
His10/Avi Human IL33-01 [2]
  IC50: 0.6 nM

B2: 33_640237 IgG1 (antibody, V domains shown)
VH: EVQLLESGGGLVQPGGSLRLSCAASGFTFSSYAMSWVRQAPGKGLEWVSGIADDFTSTYYADPVKGRFTISRDNSKNTLYLQMNSLRAEDTAVYYCARDLWMMNYAGGLRYPFGYWGQGTTVTVSS
VL: SYVLTQPPSVSVSPGQTASITCSGERMGDKYAAWYQQKPGQSPVLVIYRDTKRPSGIPERFSGSNSGNTATLTISGTQAIDEADYYCGVLKQDTGVFGGGTKVTVL
notes: IgG1; also called ZZ1M37-E06
His10/Avi Human IL33-01 [3]
  IC50, Huvec IL-8 assay vs. His Avi IL-33: 0.056 nM
[4]
  IC50, Huvec IL-8 assay vs. full length IL-33 cell lysate: 0.091 nM
His10/Avi Human IL33-01 [1]
  IC50: 0.1 nM
His10/Avi Cyno IL-33
  IC50: 1.8 nM
His10/Avi Human IL33-01 [2]
  IC50: 0.1 nM

B3: 33_640001 Fab (Fab, V domains shown)
VH: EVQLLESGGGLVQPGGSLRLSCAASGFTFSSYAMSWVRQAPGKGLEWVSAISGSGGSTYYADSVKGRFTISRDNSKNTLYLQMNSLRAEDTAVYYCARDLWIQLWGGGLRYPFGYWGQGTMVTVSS
VL: SYVLTQPPSVSVSPGQTASITCSGERMGDKYAAWYQQKPGQSPVLVIYQDTKRPSGIPERFSGSNSGNTATLTISGTQAMDEADYYCQVWDSSTGVFGGGTKVTVL
notes: Fab made by papain cleavage of full length IgG1
[5]
  Kd: 3340 pM
  koff: 0.0326 s⁻¹
  kon: 9.76e+06 M⁻¹ s⁻¹

B4: 33_640087-7B Fab (Fab, V domains shown)
VH: EVQLLESGGGLVQPGGSLRLSCAASGFTFSSYAMSWVRQAPGKGLEWVSGISAIDQSTYYADSVKGRFTISRDNSKNTLYLQMNSLRAEDTAVYYCARQKFMQLWGGGLRYPFGYWGQGTMVTVSS
VL: SYVLTQPPSVSVSPGQTASITCSGEGMGDKYAAWYQQKPGQSPVLVIYRDTKRPSGIPERFSGSNSGNTATLTISGTQAMDEADYYCGVIQDNTGVFGGGTKLTVL
notes: as for B3
[5]
  Kd: 0.43 pM
  koff: 9.42e-06 s⁻¹
  kon: 2.2e+07 M⁻¹ s⁻¹

B5: 33_640050 Fab (Fab, V domains shown)
VH: EVQLLESGGGLVQPGGSLRLSCAASGFTFSSYAMSWVRQAPGKGLEWVSAISGSGGSTYYADSVKGRFTISRDNSKNTLYLQMNSLRAEDTAVYYCPRHKFMQLWGGGLRYPFGYWGQGTMVTVSS
VL: SYVLTQPPSVSVSPGQTASITCSGERMGDKYAAWYQQKPGQSPVLVIYQDTKRPSGIPERFSGSNSGNTATLTISGTQAMDEADYYCQVWDSSTGVFGGGTKVTVL
notes: as for B3
[5]
  Kd: 3.4 pM
  koff: 0.000105 s⁻¹
  kon: 3.08e+07 M⁻¹ s⁻¹

B6: IL330180 IgG (antibody, V domains shown)
VH: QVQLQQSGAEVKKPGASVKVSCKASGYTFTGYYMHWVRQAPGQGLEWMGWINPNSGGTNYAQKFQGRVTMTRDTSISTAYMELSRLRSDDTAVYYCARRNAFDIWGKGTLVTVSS
VL: QPVLTQPPSVSEAPRQRVTISCSGSSSNIGNNAVNWYQQLPGTAPKLLIYRNNQRPSGVPDRFSGSKSGTSASLAISGLRSEDEADYYCAAWDDSLSGWVFGGGTKVNVL
[6]
  IC50, Mast cell IL-6 production: 22 nM

B7: IL330377 IgG1 (antibody, V domains shown)
VH: EVQLLESGGGLVQPGGSLRLSCAASGFTFSSYAMSWVRQAPGKGLEWVSASDMLYGSTYYADSVKGRFTISRDNSKNTLYLQMNSLRAEDTAVYYCSQNILGYFDSWGRGTLVTVSS
VL: SYVLTQPPSVSVSPGQTARITCSGDALPKQYAHWYQQKPGQAPALVIYKDTERPSGIPERFSGSSSGTTVTLTISGVQAEDEADYYCQSADSTGYHRVFGGGTKVTVL
[7]
  Huvec IL-6 production, maximum inhibition: ~70%

B8: IL330377_fgl IgG1 (antibody, V domains shown)
VH: EVQLLESGGGLVQPGGSLRLSCAASGFTFSSYAMSWVRQAPGKGLEWVSASDMLYGSTYYADSVKGRFTISRDNSKNTLYLQMNSLRAEDTAVYYCSQNILGYFDSWGRGTLVTVSS
VL: SYELMQPPSVSVSPGQTARITCSGDALPKQYAHWYQQKPGQAPVLVIYKDTERPSGIPERFSGSSSGTTVTLTISGVQAEDEADYYCQSADSTGYHRVFGGGTKLTVL
[8]
  IC50, Huvec IL-6 production: 6.6 nM
  IC50, Mast cell IL-6 production: 1.3 nM

B9: IL330398_fgl IgG1 (antibody, V domains shown)
VH: EVQLLESGGGLVQPGGSLRLSCAASGFTFSSYAMSWVRQAPGKGLEWVSASTPWQGSTYYADSVKGRFTISRDNSKNTLYLQMNSLRAEDTAVYYCVRWYWGWIDSWGRGTLVTVSS
VL: SYELMQPPSVSVSPGQTARITCSGDALPKQYAHWYQQKPGQAPVLVIYKDTERPSGIPERFSGSSSGTTVTLTISGVQAEDEADYYCLSSDASGASRVFGGGTKLTVL
[8]
  IC50, Huvec IL-6 production: 1.5 nM
  IC50, Mast cell IL-6 production: 0.9 nM

B10: IL330396_fgl IgG1 (antibody, V domains shown)
VH: EVQLLESGGGLVQPGGSLRLSCAASGFTFSSYAMSWVRQAPGKGLEWVSASTPWQGSTYYADSVKGRFTISRDNSKNTLYLQMNSLRAEDTAVYYCVRWYWGWIDSWGRGTLVTVSS
VL: SYELMQPPSVSVSPGQTARITCSGDALPKQYAHWYQQKPGQAPVLVIYKDTERPSGIPERFSGSSSGTTVTLTISGVQAEDEADYYCMSSDDTGASRVFGGGTKLTVL
[8]
  IC50, Huvec IL-6 production: 2.8 nM
  IC50, Mast cell IL-6 production: 1.5 nM

B11: IL330388_fgl IgG1 (antibody, V domains shown)
VH: EVQLLESGGGLVQPGGSLRLSCAASGFTFSSYAMSWVRQAPGKGLEWVSASTPWQGSTYYADSVKGRFTISRDNSKNTLYLQMNSLRAEDTAVYYCVRWYWGWIDSWGRGTLVTVSS
VL: SYELMQPPSVSVSPGQTARITCSGDALPKQYAHWYQQKPGQAPVLVIYKDTERPSGIPERFSGSSSGTTVTLTISGVQAEDEADYYCMSSDPSGASRVFGGGTKLTVL
[8]
  IC50, Huvec IL-6 production: 2.1 nM
  IC50, Mast cell IL-6 production: 1.2 nM

B12: IL330398 IgG1 (antibody, V domains shown)
VH: EVQLLESGGGLVQPGGSLRLSCAASGFTFSSYAMSWVRQAPGKGLEWVSASTPWQGSTYYADSVKGRFTISRDNSKNTLYLQMNSLRAEDTAVYYCVRWYWGWIDSWGRGTLVTVSS
VL: SYVLTQPPSVSVSPGQTARITCSGDALPKQYAHWYQQKPGQAPALVIYKDTERPSGIPERFSGSSSGTTVTLTISGVQAEDEADYYCLSSDASGASRVFGGGTKVTVL
[7]
  Huvec IL-6 production, maximum inhibition: ~70%
